Tests used:
[1] = target: T1, full length human TROP2 on 293F-TROP2 cells (human, UniProt P09758 27-323); experiment: FACS on 293F-TROP2 cells, MFI
T1 construct: also called 293F-TROP2 cells (clone ID #3A8); cell surface TROP2
T1 sequence: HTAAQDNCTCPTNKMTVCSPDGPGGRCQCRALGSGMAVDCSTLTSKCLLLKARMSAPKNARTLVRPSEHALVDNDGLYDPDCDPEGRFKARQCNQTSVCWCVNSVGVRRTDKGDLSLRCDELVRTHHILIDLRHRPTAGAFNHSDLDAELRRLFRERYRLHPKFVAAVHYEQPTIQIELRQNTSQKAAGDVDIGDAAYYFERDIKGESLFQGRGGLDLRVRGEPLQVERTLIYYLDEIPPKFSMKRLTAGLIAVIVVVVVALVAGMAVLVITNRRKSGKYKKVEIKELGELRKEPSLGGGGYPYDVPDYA

[2] = target: T2, human TROP2-his protein (human, UniProt P09758 27-274); experiment: epitope grouping ELISA, 15 ug/ml antibody premixed with biotin human TROP2-his; competitor: coated BM1
T2 construct: Biotin-labelled in the ELISAs, unlabelled analyte in Biacore; also called biotin-labeled human TROP2-his protein; biotin human Trop2-his
T2 sequence: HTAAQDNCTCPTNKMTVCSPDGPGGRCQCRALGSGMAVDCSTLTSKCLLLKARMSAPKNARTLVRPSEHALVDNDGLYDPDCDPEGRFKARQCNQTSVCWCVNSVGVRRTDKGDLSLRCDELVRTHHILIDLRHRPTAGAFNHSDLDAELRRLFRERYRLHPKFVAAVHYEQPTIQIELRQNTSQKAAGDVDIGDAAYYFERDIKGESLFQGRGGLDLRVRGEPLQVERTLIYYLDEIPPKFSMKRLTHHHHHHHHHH
Protocol: (§1) Firstly, capture ELISA was performed to determine the concentration of biotin-labeled human Trop2 proteins appropriate for the epitope binning test. […] The plates were washed for 4 times, added with 100 μl/well of serially diluted biotin human Trop2-his proteins (SEQ ID NO: 67) in PBST with 2.5% non-fatty milk (starting from 1.3 μg/ml with a 5-fold serial dilution), and incubated for 40 min at 37° C. Then the plates were washed for 4 times and added with 100 μl/vell of HRP-streptavidin (Jackson Immuno Research, Cat #016-030-084). The plates were incubated for another 40 min at 37° C. Then the plates were washed again, and 100 μl/well TMB was added for color development at RT for 15 min followed by quenching with 50 μl 1M H₂SO₄. The OD values at 450 nm were read.
(§2) With the appropriate concentration determined above, epitope grouping ELISA was performed. […] ELISA plates were washed once with wash buffer (PBS+0.05% v/v Tween-20, PBST) and then blocked with 200 μl blocking buffer (5% w/w non-fatty milk in PBST) for 2 hours at 37° C. […] The mixtures were incubated at room temperature for 40 minutes. After plate washing for 4 times, the antibody/biotin-TROP2-his protein mixtures were added to the antibody coated plates, 100 μl per well, and incubated for another 40 min at 37° C. Then 100 μl/well of HRP-streptavidin was added and incubated for 40 min. Then OD₄₅₀ values were determined and the cross-competition capability was calculated (cross-competition capability of antibody X (%)=(OD₄₅₀ of Antibody X-[…] of Blank)/(OD₄₅₀ of no mAb-OD₄₃₀ of Blank)*100%).

[3] = target: T2, human TROP2-his protein; experiment: SPR Biacore, human TROP2-his analyte
[4] = target: T2, human TROP2-his protein; experiment: epitope grouping ELISA, 15 ug/ml antibody premixed with biotin human TROP2-his; competitor: coated huA1E4F7D4-V16
Protocol: as §1, §2

[5] = target: T2, human TROP2-his protein; experiment: epitope grouping ELISA, 15 ug/ml antibody premixed with biotin human TROP2-his; competitor: coated BM2
Protocol: as §1, §2

B1: BM2 (in house made analog of Datopotamab) (antibody, human IgG1, kappa, V domains shown)
VH: QVQLVQSGAEVKKPGASVKVSCKASGYTFTTAGMQWVRQAPGQGLEWMGWINTHSGVPKYAEDFKGRVTISADTSTSTAYLQLSSLKSEDTAVYYCARSGFGSSYWYFDVWGQGTLVTVSS
VL: DIQMTQSPSSLSASVGDRVTITCKASQDVSTAVAWYQQKPGKAPKLLIYSASYRYTGVPSRFSGSGSGTDFTLTISSLQPEDFAVYYCQQHYITPLTFGQGTKLEIKR
Work on B1 yielded an EC50 [1] of 0.908 nM, an OD450 [2] of 0.519 OD450 and a Kd [3] of 28.7 nM. For the same binder, the koff [3] was 0.00364 s⁻¹, the kon [3] was 127000 M⁻¹ s⁻¹ and the OD450 [4] was 1.63 OD450. For the same binder, the OD450 [5] was 0.354 OD450.
